Source: the supplement of paper PMC10065799, “High-throughput profiling of sequence recognition by tyrosine kinases and SH2 domains using bacterial peptide display” (eLife, 2023)

Each sequence was assayed against Hck (UniProt P08631) (assay: phosphorylation enrichment, bacterial display (enrichment ratio); higher = better substrate or ligand; peptides without Tyr show the background).
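Further: 11-residue human phosphosite peptides and single-mutation variants displayed on the E. coli surface, counted by deep sequencing, each peptide's frequency after selection divided by its frequency in the unselected input library; frequency after pTyr selection over input frequency; kinase dosed for 20-30% of maximal phosphorylation in three min.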

Sequence of Hck (P08631 whole entry, looked up): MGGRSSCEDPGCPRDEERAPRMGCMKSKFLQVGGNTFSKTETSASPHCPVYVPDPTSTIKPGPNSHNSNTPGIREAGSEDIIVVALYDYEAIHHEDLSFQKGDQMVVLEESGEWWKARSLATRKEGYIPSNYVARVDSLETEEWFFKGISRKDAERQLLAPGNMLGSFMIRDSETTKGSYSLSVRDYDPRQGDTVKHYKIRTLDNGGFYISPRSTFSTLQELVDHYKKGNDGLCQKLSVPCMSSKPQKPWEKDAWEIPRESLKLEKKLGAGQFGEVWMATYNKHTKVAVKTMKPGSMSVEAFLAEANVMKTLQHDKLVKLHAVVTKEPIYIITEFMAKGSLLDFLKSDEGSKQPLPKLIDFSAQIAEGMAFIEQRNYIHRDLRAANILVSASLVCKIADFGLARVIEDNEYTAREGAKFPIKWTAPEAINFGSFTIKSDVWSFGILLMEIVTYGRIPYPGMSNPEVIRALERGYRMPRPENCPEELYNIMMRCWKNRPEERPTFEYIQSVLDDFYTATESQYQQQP

Row | Sequence | phosphorylation enrichment
1 | TLNFFYQQVKS [PTK2_Y148] | 0.471
2 | YLGRNYLETLM [DUS3L_Y610_D609N] | 0.551
3 | TFSPPYFHRNC [HGD_Y333_R330S_YF] | 0.539
4 | FKDVTYLTEEK [UBE3A_Y127] | 0.53
5 | DPMNTYARPAE [SGMS2_Y24_T21M] | 0.576
6 | WKGSWYSMKKM [FGB_Y475_R478K] | 0.437
7 | WGLCSYFETSK [MAGED2_Y448_R446C_YF] | 0.523
8 | HCYNSYTYPRL [PAK7_Y316_S312C] | 0.74
9 | LENQTYFRSFE [AKAP9_Y2482_K2484R] | 0.678
10 | KMLEKYKEQLN [TLK2_Y259_R262Q] | 0.53
11 | VKPENYRRQDI [VHL_Y175_L178Q] | 0.309
12 | RTVDVYFGPQM [KIRREL3_Y332_R336Q] | 1.73
13 | ADCRFYAFPQM [GAMT_Y223_YF] | 0.92
14 | IGEGTYGTVFK [CDK5_Y15] | 9.06
15 | VVQGLYKSMRK [KBTBD2_Y250_P254R] | 0.351
16 | ETAVHYIHDGI [GATD3A_Y250_L248V] | 0.399
17 | SSEILYHIIKG [CDH17_Y489_K486E] | 5.02
18 | CTTIPYNFMCN [TP53_Y234_H233P_YF] | 0.561
19 | TAVNGYAFGGG [ECHS1_Y137_A132T] | 0.419
20 | SVVVPYEPPEA [TP53_Y220_V225A] | 0.54
21 | GVCKNYAEAKD [ALB_Y343_D338G] | 0.498
22 | MFFSKYDRDND [FGB_Y408_T407K] | 0.589
23 | PTATSYTPNLA [GABRA1_Y375] | 0.477
24 | TRRSSYEDSSL [HNF4A_Y144] | 0.457
25 | SLNAVYPRAGS [OAS3_Y376] | 0.368
26 | ISKQGYDEAGP [ACTC1_Y364_E363G] | 0.572
27 | ATHRGYDSDNP [MMUT_Y146] | 0.471
28 | MKMISYETLIA [DOCK10_Y1350_T1347M] | 0.581
29 | FGSRLYKYAFK [FANCD2_Y458_L456R] | 0.399

These sequences were tested against Jak2 (UniProt O60674) in the same assay as above.
Sequence of Jak2 (O60674 whole entry, looked up): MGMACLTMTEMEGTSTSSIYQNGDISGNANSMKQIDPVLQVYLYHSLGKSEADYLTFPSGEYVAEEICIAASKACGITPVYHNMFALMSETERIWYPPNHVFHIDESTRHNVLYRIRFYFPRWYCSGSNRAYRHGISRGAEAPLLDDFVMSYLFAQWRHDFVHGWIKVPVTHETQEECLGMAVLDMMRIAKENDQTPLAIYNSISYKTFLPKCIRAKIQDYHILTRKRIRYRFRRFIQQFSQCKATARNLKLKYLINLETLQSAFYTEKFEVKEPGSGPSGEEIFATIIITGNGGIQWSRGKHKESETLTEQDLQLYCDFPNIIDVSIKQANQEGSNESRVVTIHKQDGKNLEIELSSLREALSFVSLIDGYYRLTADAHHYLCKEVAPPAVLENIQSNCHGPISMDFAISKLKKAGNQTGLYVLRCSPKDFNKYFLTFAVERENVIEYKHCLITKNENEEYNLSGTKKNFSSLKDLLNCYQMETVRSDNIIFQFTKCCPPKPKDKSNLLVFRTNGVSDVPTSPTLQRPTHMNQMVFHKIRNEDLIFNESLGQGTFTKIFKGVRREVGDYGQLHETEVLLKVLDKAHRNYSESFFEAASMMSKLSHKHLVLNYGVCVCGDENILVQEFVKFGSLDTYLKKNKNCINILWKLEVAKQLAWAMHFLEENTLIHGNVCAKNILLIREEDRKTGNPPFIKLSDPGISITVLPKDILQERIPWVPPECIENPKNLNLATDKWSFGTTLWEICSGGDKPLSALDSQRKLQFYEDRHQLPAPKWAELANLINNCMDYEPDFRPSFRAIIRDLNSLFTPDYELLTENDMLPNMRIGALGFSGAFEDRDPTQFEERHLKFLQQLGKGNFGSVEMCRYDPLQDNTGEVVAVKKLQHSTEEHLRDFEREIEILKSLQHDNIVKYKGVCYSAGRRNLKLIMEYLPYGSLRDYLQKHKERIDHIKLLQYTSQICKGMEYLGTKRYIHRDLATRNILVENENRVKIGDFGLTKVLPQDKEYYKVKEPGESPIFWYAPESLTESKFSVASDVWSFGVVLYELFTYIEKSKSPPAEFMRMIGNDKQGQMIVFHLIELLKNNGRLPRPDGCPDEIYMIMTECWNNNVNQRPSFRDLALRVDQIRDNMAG

Row | Sequence | phosphorylation enrichment
30 | TLNFFYQQVKS [PTK2_Y148] | 1
31 | YLGRNYLETLM [DUS3L_Y610_D609N] | 0.705
32 | TFSPPYFHRNC [HGD_Y333_R330S_YF] | 2.21
33 | FKDVTYLTEEK [UBE3A_Y127] | 0.959
34 | DPMNTYARPAE [SGMS2_Y24_T21M] | 0.771
35 | WKGSWYSMKKM [FGB_Y475_R478K] | 0.859
36 | WGLCSYFETSK [MAGED2_Y448_R446C_YF] | 1.34
37 | HCYNSYTYPRL [PAK7_Y316_S312C] | 1.33
38 | LENQTYFRSFE [AKAP9_Y2482_K2484R] | 1.09
39 | KMLEKYKEQLN [TLK2_Y259_R262Q] | 0.507
40 | VKPENYRRQDI [VHL_Y175_L178Q] | 0.469
41 | RTVDVYFGPQM [KIRREL3_Y332_R336Q] | 1.25
42 | ADCRFYAFPQM [GAMT_Y223_YF] | 1.45
43 | IGEGTYGTVFK [CDK5_Y15] | 0.788
44 | VVQGLYKSMRK [KBTBD2_Y250_P254R] | 0.522
45 | ETAVHYIHDGI [GATD3A_Y250_L248V] | 0.649
46 | SSEILYHIIKG [CDH17_Y489_K486E] | 1.69
47 | CTTIPYNFMCN [TP53_Y234_H233P_YF] | 0.718
48 | TAVNGYAFGGG [ECHS1_Y137_A132T] | 0.737
49 | SVVVPYEPPEA [TP53_Y220_V225A] | 1.1
50 | GVCKNYAEAKD [ALB_Y343_D338G] | 0.556
51 | MFFSKYDRDND [FGB_Y408_T407K] | 0.845
52 | PTATSYTPNLA [GABRA1_Y375] | 0.349
53 | TRRSSYEDSSL [HNF4A_Y144] | 0.465
54 | SLNAVYPRAGS [OAS3_Y376] | 0.462
55 | ISKQGYDEAGP [ACTC1_Y364_E363G] | 0.931
56 | ATHRGYDSDNP [MMUT_Y146] | 0.523
57 | MKMISYETLIA [DOCK10_Y1350_T1347M] | 0.888
58 | FGSRLYKYAFK [FANCD2_Y458_L456R] | 0.488

What follows are sequences tested against MERTK (UniProt Q12866) in the same assay as above.
Sequence of MERTK (Q12866 whole entry, looked up): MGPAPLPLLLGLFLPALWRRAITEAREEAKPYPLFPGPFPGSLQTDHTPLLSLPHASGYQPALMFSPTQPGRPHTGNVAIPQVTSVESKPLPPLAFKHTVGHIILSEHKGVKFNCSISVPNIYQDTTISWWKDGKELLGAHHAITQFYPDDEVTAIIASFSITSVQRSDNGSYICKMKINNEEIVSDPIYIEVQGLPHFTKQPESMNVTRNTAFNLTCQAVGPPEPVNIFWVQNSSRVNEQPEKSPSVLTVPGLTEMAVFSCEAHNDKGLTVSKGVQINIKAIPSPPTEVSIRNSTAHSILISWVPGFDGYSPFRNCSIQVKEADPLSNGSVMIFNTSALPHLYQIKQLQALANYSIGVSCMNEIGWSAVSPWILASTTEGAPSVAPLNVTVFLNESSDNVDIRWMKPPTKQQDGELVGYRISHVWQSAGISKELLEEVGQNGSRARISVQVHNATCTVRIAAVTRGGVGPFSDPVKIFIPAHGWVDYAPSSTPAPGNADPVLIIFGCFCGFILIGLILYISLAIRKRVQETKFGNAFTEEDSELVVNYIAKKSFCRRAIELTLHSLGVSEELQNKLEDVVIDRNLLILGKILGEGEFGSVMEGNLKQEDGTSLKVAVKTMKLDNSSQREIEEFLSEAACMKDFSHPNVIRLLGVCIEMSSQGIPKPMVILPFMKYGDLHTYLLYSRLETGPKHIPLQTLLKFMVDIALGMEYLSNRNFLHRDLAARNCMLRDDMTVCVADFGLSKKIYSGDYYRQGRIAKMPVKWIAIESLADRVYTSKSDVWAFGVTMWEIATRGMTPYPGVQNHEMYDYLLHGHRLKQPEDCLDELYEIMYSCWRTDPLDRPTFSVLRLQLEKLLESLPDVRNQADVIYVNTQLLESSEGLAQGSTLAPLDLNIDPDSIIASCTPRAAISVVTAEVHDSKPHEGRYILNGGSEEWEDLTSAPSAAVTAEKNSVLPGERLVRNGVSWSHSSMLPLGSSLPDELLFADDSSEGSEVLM

Row | Sequence | phosphorylation enrichment
59 | TLNFFYQQVKS [PTK2_Y148] | 0.366
60 | YLGRNYLETLM [DUS3L_Y610_D609N] | 0.467
61 | TFSPPYFHRNC [HGD_Y333_R330S_YF] | 0.718
62 | FKDVTYLTEEK [UBE3A_Y127] | 0.51
63 | DPMNTYARPAE [SGMS2_Y24_T21M] | 0.46
64 | WKGSWYSMKKM [FGB_Y475_R478K] | 0.362
65 | WGLCSYFETSK [MAGED2_Y448_R446C_YF] | 0.403
66 | HCYNSYTYPRL [PAK7_Y316_S312C] | 2.84
67 | LENQTYFRSFE [AKAP9_Y2482_K2484R] | 0.537
68 | KMLEKYKEQLN [TLK2_Y259_R262Q] | 0.393
69 | VKPENYRRQDI [VHL_Y175_L178Q] | 0.379
70 | RTVDVYFGPQM [KIRREL3_Y332_R336Q] | 0.577
71 | ADCRFYAFPQM [GAMT_Y223_YF] | 7.18
72 | IGEGTYGTVFK [CDK5_Y15] | 0.825
73 | VVQGLYKSMRK [KBTBD2_Y250_P254R] | 0.482
74 | ETAVHYIHDGI [GATD3A_Y250_L248V] | 0.453
75 | SSEILYHIIKG [CDH17_Y489_K486E] | 8.04
76 | CTTIPYNFMCN [TP53_Y234_H233P_YF] | 0.482
77 | TAVNGYAFGGG [ECHS1_Y137_A132T] | 0.462
78 | SVVVPYEPPEA [TP53_Y220_V225A] | 0.54
79 | GVCKNYAEAKD [ALB_Y343_D338G] | 0.385
80 | MFFSKYDRDND [FGB_Y408_T407K] | 0.486
81 | PTATSYTPNLA [GABRA1_Y375] | 0.357
82 | TRRSSYEDSSL [HNF4A_Y144] | 0.5
83 | SLNAVYPRAGS [OAS3_Y376] | 0.378
84 | ISKQGYDEAGP [ACTC1_Y364_E363G] | 0.666
85 | ATHRGYDSDNP [MMUT_Y146] | 0.363
86 | MKMISYETLIA [DOCK10_Y1350_T1347M] | 0.485
87 | FGSRLYKYAFK [FANCD2_Y458_L456R] | 0.342

Each sequence was assayed on c-Abl (mouse) in the same assay as above.

Row | Sequence | phosphorylation enrichment
88 | TLNFFYQQVKS [PTK2_Y148] | 0.606
89 | YLGRNYLETLM [DUS3L_Y610_D609N] | 0.765
90 | TFSPPYFHRNC [HGD_Y333_R330S_YF] | 0.878
91 | FKDVTYLTEEK [UBE3A_Y127] | 0.726
92 | DPMNTYARPAE [SGMS2_Y24_T21M] | 0.792
93 | WKGSWYSMKKM [FGB_Y475_R478K] | 0.533
94 | WGLCSYFETSK [MAGED2_Y448_R446C_YF] | 0.926
95 | HCYNSYTYPRL [PAK7_Y316_S312C] | 0.932
96 | LENQTYFRSFE [AKAP9_Y2482_K2484R] | 0.843
97 | KMLEKYKEQLN [TLK2_Y259_R262Q] | 0.51
98 | VKPENYRRQDI [VHL_Y175_L178Q] | 0.465
99 | RTVDVYFGPQM [KIRREL3_Y332_R336Q] | 1.53
100 | ADCRFYAFPQM [GAMT_Y223_YF] | 2.39
101 | IGEGTYGTVFK [CDK5_Y15] | 0.676
102 | VVQGLYKSMRK [KBTBD2_Y250_P254R] | 0.519
103 | ETAVHYIHDGI [GATD3A_Y250_L248V] | 0.606
104 | SSEILYHIIKG [CDH17_Y489_K486E] | 10.4
105 | CTTIPYNFMCN [TP53_Y234_H233P_YF] | 0.528
106 | TAVNGYAFGGG [ECHS1_Y137_A132T] | 0.592
107 | SVVVPYEPPEA [TP53_Y220_V225A] | 0.859
108 | GVCKNYAEAKD [ALB_Y343_D338G] | 0.6
109 | MFFSKYDRDND [FGB_Y408_T407K] | 0.717
110 | PTATSYTPNLA [GABRA1_Y375] | 0.505
111 | TRRSSYEDSSL [HNF4A_Y144] | 0.402
112 | SLNAVYPRAGS [OAS3_Y376] | 0.507
113 | ISKQGYDEAGP [ACTC1_Y364_E363G] | 0.793
114 | ATHRGYDSDNP [MMUT_Y146] | 0.548
115 | MKMISYETLIA [DOCK10_Y1350_T1347M] | 0.65
116 | FGSRLYKYAFK [FANCD2_Y458_L456R] | 0.5
